The series in a line: yeast display, Sf9 membrane polyspecificity reagent, FACS + sequencing; frameworks hold sequencing errors. Put shortly:
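Sorting gates, low and high (top ~1%), were placed on anti-HA fluorescence to track expression and on streptavidin fluorescence to track reagent binding. A clone's polyreactivity label is taken from the gate it came out of. The reagent was 10% biotinylated, detergent-solubilized Sf9 membrane, applied for 1 hour at 4 °C to galactose-induced yeast display cells.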
Take “QVQLVESGGGLVQAGGSLRLSCAASGFIFIHNAMGWYRQAPGKERELVAAISYSGGSTYYADSVKGRFTISRDNAKNTVYLQMNSLKPEDTAVYYCNRVQYYRADRMDYWGQGTQVTVSS”: the “polyreactivity (PSR sort gate)” value is given as “low polyreactivity”.

Take “QVQLVESGGGLVQAGGSLRLSCAASGFIFIQYAMGWYRQAPGKERELVAAISRSGGSTSYADSVKGRFTISRDNAKNTVYLQMNSLKPEDTAVYYCNRYYGSSGHGRPNEKYGYWGQGTQVTVSS”: the “polyreactivity (PSR sort gate)” value was “low polyreactivity”.

Consider “QVQLVESGGGLVQAGGSLRLSCAASGFIFITVNAMGWYRQAPGKEREFVAAITRSGTGTYYADSVKGRFTISRDNAKNTVYLQMNSLKPEDTAVYYCAADATSTGAYDYWGQGTQVTVSS”, for which the “polyreactivity (PSR sort gate)” value is “low polyreactivity”.

As to “QVQLVESGGGLVQAGGSLRLSCAASGFIFKGNAMGWYRQAPGKERELVAAITNRGGGTYYADSVKGRFTISRDNAKNTVYLQMNSLKPEDTAVYYCAKAYTRPFHPYDYWGQGTQVTVSS”, the “polyreactivity (PSR sort gate)” value is “high polyreactivity”.

Take “QVQLVESGGGLVQAGGSLRLSCAASGFIFKHNALGWYRQAPGKERELVAAISWSGDSTYYADSVKGRFTISRDNAKNTVYLQMNSLKPEDTAVYYCAAVRALRKVRDYYYWGQGTQVTVSS”: the “polyreactivity (PSR sort gate)” value is listed as “high polyreactivity”.

On to “QVQLVESGGGLVQAGGSLRLSCAASGFIFKPYAMGWYRQAPGKERELVAAITYSGSSTYYADSVKGRFTISRDNAKNTVYLQMNSLKPEDTAVYYCAARDWSHPRRLFYWGQGTQVTVSS”, for which the “polyreactivity (PSR sort gate)” value is recorded as “high polyreactivity”.

In the case of “QVQLVESGGGLVQAGGSLRLSCAASGFIFKPYDMGWYRQARGKERELVAAISWTGTSTYYADSVKGRFTISRDNAKNTVYLQMNSLKPEDTAVYYCAADFYGGFAHEYWGQGTQVTVSS”, the “polyreactivity (PSR sort gate)” value is listed as “low polyreactivity”.

As for “QVQLVESGGGLVQAGGSLRLSCAASGFIFKRYTMGWYRQAPGKERELVAAISKSGSSTYYADSVKGRFTISRDNAKNTVYLQMHSLKPEDTAVYYCAAGWGWSSFGYGYWGQGTQVTVSS”, the “polyreactivity (PSR sort gate)” value is given as “high polyreactivity”.

As to “QVQLVESGGGLVQAGGSLRLSCAASGFIFKTYAMGWYRQAPGKERELVARISKSSGNTYYADSVKGRFTISRDNAKNTVYLQMNSLKPEDTAVYYCNRRHTSKNAYTSPSEYDYWGQGTQVTVSS”, the “polyreactivity (PSR sort gate)” value is listed as “low polyreactivity”.

As for “QVQLVESGGGLVQAGGSLRLSCAASGFIFKYNAMGWYRQAPGKERELVAAISRSGGRTYYADSVKGRFTISRDNAKNTVSLQMNSLKPEDTAVYYCAARVGVSGFEYDYWGQGTQVTVSS”, the “polyreactivity (PSR sort gate)” value is listed as “high polyreactivity”.

On to “QVQLVESGGGLVQAGGSLRLSCAASGFIFLAYAMGWYRQAPGKERELVAAISRSGGRTYYADSVKGRFTISRDNAKNTVYLQMNSLKPEDTAVYYCAPLANGTNGFYYWGQGTQVTVSS”, for which the “polyreactivity (PSR sort gate)” value is on record as “high polyreactivity”.

On to “QVQLVESGGGLVQAGGSLRLSCAASGFIFLAYAMGWYRQAPGKERELVAAISSGSSTSYADSVKGRFTISRDNAKNTVYLQMNSLKPEDTAVYYCNAVPSFANLTWESYDYWGQGTQVTVSS”, for which the “polyreactivity (PSR sort gate)” value is on record as “low polyreactivity”.

Turning to “QVQLVESGGGLVQAGGSLRLSCAASGFIFLDYAMGWYRQAPGKERELVAAISSRGARTYYADSVKGRFTISRDNAKNTVYLQMNSLKPEDTAVYYCAARGPLVRYGYWGHGTQVTVSS”, the “polyreactivity (PSR sort gate)” value is “high polyreactivity”.

Regarding “QVQLVESGGGLVQAGGSLRLSCAASGFIFLGNAKGWYRQATGKERELVAAISSGGSTYADSVKGRFTISRDNAKNTVYLQMNSLKPEDTAVYYCAVDRAFRAQNYHEYDYWGQGTQVTVSS”, the “polyreactivity (PSR sort gate)” value is “low polyreactivity”.

With “QVQLVESGGGLVQAGGSLRLSCAASGFIFLGNAMGWYRQAPGKERELVAAISSGGSTYADSVKGRFTISRDNAKNTVYLQMNSLKPEDTAVYYCNTEDYTQYEPGYYPPNYYWGQGTQVTVSS”, the “polyreactivity (PSR sort gate)” value was “low polyreactivity”.

As to “QVQLVESGGGLVQAGGSLRLSCAASGFIFLLYDMGWYRQAPGKERELVAAISRSGGSTYYADSVKGRFTISRDNAKNTVYLQMNSLKPEDTAVYYCNAAYRPWRGGYYPVGYYYWGQGTQVTVSS”, the “polyreactivity (PSR sort gate)” value is “high polyreactivity”.

In the case of “QVQLVESGGGLVQAGGSLRLSCAASGFIFLNNTLGWYRQAPGKERELVAAISWSGGSTYYADSVKGRFTISRDNAKYSVYLQMNSLKPEDTAVYYCAADVKHTTEYDYWGKGTQVTVSS”, the “polyreactivity (PSR sort gate)” value is “high polyreactivity”.

Consider “QVQLVESGGGLVQAGGSLRLSCAASGFIFLRYVMGWYRQAPGKERELVAVITGTGVRTYADSVKGRFTISRDNAKNTVYLQMTSLKPEDTAVYYCAVVSSSREVEVLDFDYWGLGTQVTVSS”, for which the “polyreactivity (PSR sort gate)” value is given as “low polyreactivity”.

For “QVQLVESGGGLVQAGGSLRLSCAASGFIFLTNSMGWYRQAPGKERELVAAIRWSDDGTYYADSVKGRFTISRDNAKNTVYLQMNSLKPEDTEVYYCAKEVRNTVTTTGQGTQVTVSS”, the “polyreactivity (PSR sort gate)” value is “low polyreactivity”.

Take “QVQLVESGGGLVQAGGSLRLSCAASGFIFLYNAMGWYRQAPGKERELVATISTGGDTTYADSVKGRFTISRDNAKNTVYLQMNSVKPEDTAVYYCAKLDLSIFRWDTEFGLYDYWGQGTQVTVLS”: the “polyreactivity (PSR sort gate)” value is on record as “low polyreactivity”.

Consider “QVQLVESGGGLVQAGGSLRLSCAASGFIFNAYPMGWYRPAPGKERELVAAISSSGGRTYYADSVKGRFTISRDNAKNTVYLHMNSLKPEDTAVYYCNADKNSIIKLRGYYYWGQGTQVTVSS”, for which the “polyreactivity (PSR sort gate)” value is reported as “high polyreactivity”.

For “QVQLVESGGGLVQAGGSLRLSCAASGFIFNAYVMGWYRQAPGKERELVAAITASGGSTYYADSVKGRFTISRDNAKNTVYLQMNSLKPEDTAVYYCAAAHPYDSRFDYWGQGTQVTVSS”, the “polyreactivity (PSR sort gate)” value is listed as “high polyreactivity”.

Consider “QVQLVESGGGLVQAGGSLRLSCAASGFIFNINTMGWYRQAPGKERELVAAISGSGDSTYYADSVKGRFTISRDNAKNTVYLQMNSLKPEDTAVYYCNAGPWWYLHEYDYWGQGTQVTVSS”, for which the “polyreactivity (PSR sort gate)” value is listed as “low polyreactivity”.

For the sequence “QVQLVESGGGLVQAGGSLRLSCAASGFIFNKYAMGWYRQAPGKERELVATIRRDGSTNYADSVKGRFTISRDNAKNTVYLQMNSQKPEDTAVYYCAVRPYYWSRDYYWGQGTQVTVSS”, the “polyreactivity (PSR sort gate)” value is “high polyreactivity”.

In the case of “QVQLVESGGGLVQAGGSLRLSCAASGFIFNLYAMGWYRQAPGKERELVAVISGSGVRTYYADSVKGRFTISRDNAKNTVYLQMNSLKPEDTAVYYCAARTYGGYEYWGQGTQVTVSS”, the “polyreactivity (PSR sort gate)” value was “high polyreactivity”.

“QVQLVESGGGLVQAGGSLRLSCAASGFIFNLYAMGWYRQAPGKERELVAVITGSGVRTYYADSVKGRFTISRDNAKNTVYLQMNSLKPEDTAVYYCAARTYGGYEYWGQGTQVTVSS”: the “polyreactivity (PSR sort gate)” value is recorded as “high polyreactivity”.

Consider “QVQLVESGGGLVQAGGSLRLSCAASGFIFNSYAMGGYRQAPGKERELVAAISRRGSSTYYADSVKGRFTISRDNAKNTVYLQMKSLKPEDTAVYYCAKRDLSTSWYLRDYWGQGTQVTVSS”, for which the “polyreactivity (PSR sort gate)” value was “high polyreactivity”.

As for “QVQLVESGGGLVQAGGSLRLSCAASGFIFNTMGWYRQAPGKERELVATISWSDGSTYYADSVKGRFTISRDNAKNTVYLQMNSLKPEDTAVYYCAADSRPWGSSMDSWGQGTQVTVSS”, the “polyreactivity (PSR sort gate)” value is recorded as “low polyreactivity”.

“QVQLVESGGGLVQAGGSLRLSCAASGFIFNTMGWYRQAPGKERELVATMSWSDGSTYYADSVKGRFTISRDNAKNTVYLQMNSLKPEDTAVYYCAATTDALVGRPRYDYWGQGTQVTVSS”: the “polyreactivity (PSR sort gate)” value is on record as “low polyreactivity”.

“QVQLVESGGGLVQAGGSLRLSCAASGFIFNTNAMRWYRQAPVKEREFDAAITSSDGNTYYADSVKGRFTISRDNAKNTVYLQMNSLKPEDTAVYYCAADARTKSYVRLYDYWGQGTQVTVSS”: the “polyreactivity (PSR sort gate)” value is “low polyreactivity”.

Values taken from the nanobody polyreactivity screen of Harvey et al. (2022).
